Results on 1 molecule are retold here after patent publication US9243044B2, “Anticoagulant polypeptide and applications thereof” (GUANGDONG MEDICAL COLLEGE, priority 2011, dated 2016).

Marks after values point to notes of the source that are not given here.

For one assay, the target named is T1, human fXIIa (Homo sapiens, UniProt P00748).
T1 construct: Human coagulation factors IIa (thrombin), Xa, XIa, XIIa, EGR-fXa; purchased Haematologic Technologies Inc (United States)
T1 sequence (P00748 373-615 limits assumed): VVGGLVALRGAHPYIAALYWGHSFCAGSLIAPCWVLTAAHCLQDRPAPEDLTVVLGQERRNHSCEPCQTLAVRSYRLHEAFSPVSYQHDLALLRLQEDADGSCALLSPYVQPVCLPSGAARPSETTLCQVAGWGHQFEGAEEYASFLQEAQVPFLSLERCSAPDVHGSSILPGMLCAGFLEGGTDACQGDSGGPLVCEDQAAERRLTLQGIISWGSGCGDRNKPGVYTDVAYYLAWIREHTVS
T1 sequence (P00748 20-372 limits assumed): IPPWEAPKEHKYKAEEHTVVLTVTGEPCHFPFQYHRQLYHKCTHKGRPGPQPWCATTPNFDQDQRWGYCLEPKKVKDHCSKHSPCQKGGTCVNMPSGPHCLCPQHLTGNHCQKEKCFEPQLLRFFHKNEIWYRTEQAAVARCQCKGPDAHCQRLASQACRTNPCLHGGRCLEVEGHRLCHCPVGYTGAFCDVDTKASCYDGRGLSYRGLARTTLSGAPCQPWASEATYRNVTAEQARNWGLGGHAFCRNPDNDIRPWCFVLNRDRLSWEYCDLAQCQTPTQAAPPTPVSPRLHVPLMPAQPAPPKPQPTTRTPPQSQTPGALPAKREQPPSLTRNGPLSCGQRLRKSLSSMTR
The experiment in a line: Chromogenic assay, fXIIa. Format: biochemical. From the text: The recombinant anticoagulant polypeptides in the present invention were expressed in E. coli and purified in our laboratory, of which the activities against coagulation factors were investigated by chromogenic assays. Human coagulation factors IIa (thrombin), Xa, XIa, XIIa, EGR-fXa were products of Haematologic Technologies Inc (United States). Recombinant fVIIa was products of Novo-Nordisk (Denmark). Recombinant soluble tissue factor (sTF) was purchased from Protgen (Beijing, China). The following chromogenic substrates were used for these coagulation factor assays: S2765 for human fXa, S2288 for human fVIIa and fIIa, 52366 for human fXIa and fXIIa, respectively.
The chromogenic assays were carried out in a total reaction volume of 100 μl in individual wells of a 96-well microtiter plate. 50 μl fIIa, fXa, fXIa, or fXIIa (final concentration: 1 nM) was incubated with 10 μl recombinant anticoagulant polypeptide at various concentrations (or PBS control group) Assays for the detection activity of fVIIa: 50 μl fVIIa+TF (1 μM) and EGR-fXa (final concentration 500 nM) was incubated for 15 mins at 25° C., respectively. After the addition of 40 μl of prewarmed chromogenic substrate to a final concentration of 400 μM, the changes of absorbance at 405 nm were monitored by using an E1x808 kinetic microtiter reader. The data were used to calculate the velocities of response.

The subject of assay [1] is SD rats. The assay is described as follows: Rat carotid artery thrombosis (FeCl3). As to conditions: for Inhibition rate %: vs model group. Format: in vivo. The method, then: 50 SPF grade male SD rats (provided by the laboratory animal center of Guangdong Medical College, 300-350 g body weight) were randomly divided into sham operation group (except without the FeCl3, the remaining steps with other groups), model group, and rNAPTin-1 low dose (100 μg·kg^−1), middle dose (1 mg·kg^−1), high dose group (5 mg·kg^−1), 10 rats each group, respectively. These rats were anaesthetized with 10% chloral hydrate (250 mg/kg) by intraperitoneal injection. The right carotid artery was isolated by making a midline cervical incision followed by blunt dissection to expose a 1 cm segment of the vessel from the carotid sheath, and then a 0.6 cm wide sealing adhesive strip was inserted. After 5 mins of tail intravenous injection of drugs, separation spare the common carotid artery segment was ring wrapped by filter paper (1.0 cm×0.5 cm) soaked in 20% FeCl3 solution and sealed with strip seal. After 15 mins, the filter strips was remove. 40 mins later, the blood vessels ligation at both ends of filter paper was ligated. The vascular segment of the paper strip wrapped was precisely cut followed sucked excess blood in blood vessels with a clean filter paper, and wet weight including thrombotic vascular was accurately weighed, then weighed again after removing blood clots. The difference is the quality of the thrombus within the 0.5 cm long vessel segment. In sham operation, FeCl3 immersion filter strips were replaced with normal saline immersion filter strips.

The subject of assay [2] is SD rats. The assay is described as follows: Rat clotting time after i.v. injection, aPTT. Format: in vivo. As to conditions: for Clotting time aPTT: rat plasma 2 min after injection. The method, then:
(§1) 40 SPF grade male SD rats (provided by the laboratory animal center of Guangdong Medical College, 300-350 g body weight) were randomly divided into a line group, and rNAPTin-1 low-dose (100 μg·kg^−1), middle-dose (1 mg·kg^−1), high dose group (5 mg·kg^−1), 10 rats each group. 2 min after intravenous injection of various rNAPTin-1, blood was harvested from animal heart, and injected into an anticoagulant tube (3.8% sodium citrate). Animal plasma was separated by centrifugation (1500×g, 10 mins) and was used to measure aPTT and PT.

Assay [3] has as its system SD rats. The assay is described as follows: Rat clotting time after i.v. injection, PT. As to conditions: for Clotting time PT: rat plasma 2 min after injection. Format: in vivo. The method, then: as §1

B1: NAPTin-1 (protein)
chain: NPSCGENERHDECSRKECDPKCKYDGTEEKDDEKPVVCLTRVCYGDCICRDGFLRNKNGACVKAEDCELD
modifications: Sequence derived from Ancylostoma caninum or Synthetic
In the case of B1, the “effect on fXIIa activity (in words)” value in the assay with human fXIIa (100 nM) and in the assay with human fXIIa (200 nM) was “without affecting” in each case. Also, the “wet weight of thrombus” value with SD rats [1] (100 μg·kg^−1 i.v.) is given as 1.5 ± 0.2 mg; in the assay with SD rats [1] (1 mg·kg^−1 i.v.), 0.5 ± 0.3 mg. The values for the Inhibition rate % in the assay with SD rats [1] (100 μg·kg^−1 i.v.), in the assay on SD rats [1] (1 mg·kg^−1 i.v.) and in the assay with SD rats [1] (5 mg·kg^−1 i.v.) were 66.7%, 88.9% and 100%, respectively. Further, the “wet weight of thrombus (mg)” value in the assay on SD rats [1] (5 mg·kg^−1 i.v.) is reported as 0* mg. Besides, the “Clotting time aPTT” value in the assay on SD rats [2] (0.1 mg/kg i.v.) was found to be 23.5 ± 2.1; with SD rats [2] (1.0 mg/kg i.v.) it was 56.3 ± 5.1; with SD rats [2] (5.0 mg/kg i.v.), 136.7 ± 35.5. The “effect on rat aPTT (in words)” value in the assay with SD rats [2] (0.1-5 mg/kg i.v.) was “prolonged significantly aPTT”. The “Clotting time PT” value in the assay with SD rats [3] (0.1 mg/kg i.v.) is recorded as 11.8 ± 0.5; with SD rats [3] (1.0 mg/kg i.v.), 12.0 ± 0.3; in the assay on SD rats [3] (5.0 mg/kg i.v.) it was 11.5 ± 0.8. Besides, in the assay with SD rats [3] (0.1-5 mg/kg i.v.), the “effect on rat PT (in words)” value is “not prolonged PT”.
